Experimental data: the supplement of paper PMC10567573

B1: CDC14A (parent)
chain: LWVQGDIFRSKLKNRPSSEGSINK
B2: CCDC70 (parent)
chain: FSFKVSRWMGLACFRSLAASSPSI

Variants of: B1
Test: protein stability index of a GFP-peptide fusion (GPS, HEK-293T) (PSI 1-6); higher = more stable
Conditions: c terminus: a fixed tail appended
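Note: lentivirally expressed fusions sorted by FACS into six bins by GFP to DsRed ratio, PSI derived from sequencing read proportions per bin multiplied by bin number.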

Protein stability index: each site, then its substitutions
N23: R 2.4; S 2.96; Q 2.31; Y 1.91; P 3.06; W 2.8; M 2.15; T 3.06
K24: S 2.37; M 2.08; C 1.93; L 1.91; V 1.63; F 1.75; Y 1.73; N 2.79; P 2.46; T 2.83; A 2.31; Q 2.41; R 2.52; H 2.06; E 2.73; I 1.8; G 2.26; W 2.47; D 2.79

Variants of: B2
Test: as above
Conditions: c terminus: a fixed tail appended

Protein stability index: each site, then its substitutions
W8: R 1.81; Y 3.02; Q 3.47; P 2.4; G 3.55; L 3.27; D 1.76; E 1.29; H 2.82; I 2.9; T 2.58; C 2.07; F 4.12; A 1.12; K 2.29; S 2.08
A12: H 1.57; R 1.49; S 2.02; P 2.56; D 2.87; V 1.98; K 3.62; L 2; M 3.25; I 3.43; Q 3.81; Y 2.87; E 2.75
S16: Q 2.42; A 3.04; I 1.98; F 2.55; K 2.18; P 3.05; R 3.88; L 2.13; C 2.56; N 3.94; H 3.13; Y 3.27; D 2.86
A19: T 3.93; N 3.2; Q 2.32; W 3.71; R 3.39; H 2.03; Y 3.36; P 2.09; L 3.58; D 2.88; V 3.78; E 3.77
F1: L 4.16; K 2.46; N 2.35; M 4.47; D 1.25; C 2.38; R 2.08; S 1.38; E 3.1; I 1.68; Q 2.12
G10: E 3.35; P 4.98; A 3.75; C 1.55; V 2.36; Y 4.12; W 3.9; R 2.37; M 4.54; S 2.98; D 3.79; K 3.17; F 1.86
S21: I 3.37; Y 1.82; N 2.04; K 2.57; R 1.75; C 2.05; Q 2.23; E 3.18; P 3.96; W 2.85; A 1.99; G 2.62; F 3.31; M 3.02
F14: P 3.6; S 1.61; V 3.5; W 1.7; A 3.51; G 3.57; Q 1.72; T 1.31; L 2; N 2.56; I 1.54; K 1.93; M 2.21
S23: Q 3.59; D 3.88; L 4.22; F 3.09; N 3.56; C 2.6; K 2.68; T 2.67; V 2.53
L17: Q 1.83; S 1.87; Y 2.69; A 1.7; N 2.73; I 1.86; T 2.3; H 2.29; P 3.88; K 2.45; G 3.62; R 2.19
A18: T 2.82; E 2.71; W 1.96; F 2.74; D 2.71; K 4.48; H 2.37; M 2.78; L 2.9; Y 3.5
K4: P 1.65; D 3.56; S 3.25; H 2.73; G 2.99; E 1.92; L 3.31; R 2.22; C 3.35; A 2.38; V 3.11; I 3.39; W 4.77; M 2.34; T 2.38
F3: H 1.87; Q 1.92; V 1.38; A 3.33; K 1.39; C 2.74; P 2.57; S 2.6; W 1.82; T 1.83; L 4.25; R 3.02; E 2.21; D 1.63
M9: C 3.07; I 4.43; H 2.8; E 2.5; P 1.36; F 2.95; N 2.15; D 4.03; Y 3.2; A 2.28; L 4.57
S2: M 2.1; T 2.69; F 3.87; H 1.33; K 2.59; P 2.37; A 1.82; C 3.54; R 1.49; G 1.56; V 1.84; D 2.19; Q 3.39; I 3.26; Y 2.62
R7: H 3.25; V 3.67; E 3.4; A 2.22; C 3.09; G 1.65; M 2.33; I 4.23; N 2.53; Q 2.19; F 2.69; D 2.9
S20: F 4.72; R 4.31; G 2.51; M 2.2; Y 2.74; L 3.27; V 2.6; D 3.1; T 2.31; N 2.46; H 1.81; W 3.37
R15: E 3.26; V 3.28; D 2.71; M 3.86; S 1.7; L 3.13; I 2.04; A 3.76; Y 2.87; W 4.5
S6: L 2.29; E 3.26; R 2.09; I 2.7; Q 3.43; N 3.31; A 2.99; G 2.88; C 2.82; D 2.35; M 2.17; P 2.51; Y 2.88; W 3.02; F 1.69; K 2.24
C13: W 2.35; Y 3.24; G 2.27; P 1.82; K 1.46; S 2.66; R 3.4; V 2.52; T 1.63; L 3.57; H 2.36; F 3.96; D 2.05
I24: F 2.56; K 2.12; E 1.44; A 2.67; G 2.36; W 3.1; N 2.33; Y 3.49; L 3; Q 2.38; D 2.72
V5: R 3.55; D 1.73; T 2.77; K 2.28; H 2; A 3.24; P 2.21; F 2.74; I 1.72; M 2.01; Y 2.98; Q 3.04; L 2.22; N 2.78; C 2.92; G 2.54; E 1.29
L11: A 3.24; H 5.37; N 2.65; E 1.76; F 3.35; D 2.84; R 4.02; S 3.51; M 3.73; I 3.88; G 3.16; Y 3.04; T 3.12
P22: R 2.46; A 1.68; T 3.71; V 2.95; M 3.36; D 2.97; H 1.85; W 3.4; Y 2.86; K 2.38; E 3.78; Q 3.8
